{"source": "patent EP0251446B1", "about": "“Non-human Carbonyl hydrolase mutants, DNA sequences and vectors encoding same and hosts transformed with said vectors” (GENENCOR INTERNATIONAL, INC., priority 1986, dated 1988)", "proteins": {"B1": {"name": "B. amyloliquefaciens subtilisin variant D166 (Gly166 to Asp) (Bacillus amyloliquefaciens; G273D) (protein)", "chain": "AQSVPYGVSQIKAPALHSQGYTGSNVKVAVIDSGIDSSHPDLKVAGGASMVPSETNPFQDNNSHGTHVAGTVAALNNSIGVLGVAPSASLYAVKVLGADGSGQYSWIINGIEWAIANNMDVINMSLGGPSGSAALKAAVDKAVASGVVVVAAAGNEGTSGSSSTVDYPGKYPSVIAVGAVDSSNQRASFSSVGPELDVMAPGVSIQSTLPGNKYGAYNGTSMASPHVAGAAALILSKHPNWTNTQVRSSLENTTTKLGDSFYYGKGLINVQAAAQ", "notes": "at various amino acid residues within the mature form of the subtilisin molecule; made in house; host or cells: Bacillus subtilis BG2036"}, "B2": {"name": "B. amyloliquefaciens subtilisin variant E166 (Gly166 to Glu) (Bacillus amyloliquefaciens; G273E) (protein)", "chain": "B1 chain with D166E", "notes": "as for B1"}, "B3": {"name": "B. amyloliquefaciens subtilisin variant N166 (Gly166 to Asn) (Bacillus amyloliquefaciens; G273N) (protein)", "chain": "B1 chain with D166N", "notes": "as for B1"}}, "format_in_all_cases": "biochemical, B. amyloliquefaciens", "key": {"[1]": {"substrate": "CSCC[C@H](NC(=O)[C@@H]1CCCN1C(=O)[C@H](C)NC(=O)[C@H](C)NC(=O)CCC(=O)O)C(=O)Nc1ccc([N+](=O)[O-])cc1", "assay": "Kinetics of p-nitroanilide substrate hydrolysis, D166", "details": "other: Table XIV, 156 Glu / 166 Asp; value in parentheses; synthetic substrate with label as P-1 amino acid", "excerpt": "(§1) Wild-type subtilisin was purified from B. subtilis culture supernatants expressing the B. amyloliquefaciens subtilisin gene (Wells, J.A., et al. (1983) Nucleic Acids Res. 11, 7911-7925) as previously described (Estell, D.A., et al. (1985) J. Biol. Chem. 260, 6518-6521). Details of the synthesis of tetrapeptide substrates having the form succinyl-L-AlaL-AlaL-ProL-[X]-p-nitroanilide (where X is the P1 amino acid) are described by DelMar, E.G., et al. (1979) Anal. Biochem. 99, 316-320. Kinetic parameters, Km(M) and kcat-(s-^1) were measured using a modified progress curve analysis (Estell, D.A., et al. (1985) J. Biol. Chem. 260, 6518-6521). Briefly, plots of rate versus product concentration were fit to the differential form of the rate equation using a non-linear regression algorithm. Errors in kcat and Km for all values reported are less than five percent. The various substrates in Table VIII are ranged in order of decreasing hydrophobicity. Nozaki, Y. (1971), J. Biol. Chem. 246, 2211-2217; Tanford C. (1978) Science 200, 1012).\n(§2) The construction of subtilisin mutants containing the substitution of the ionic amino acids Asp, Asn, Gln, Lys and Ang are disclosed in EPO Publication No. 0130756. The present example describes the construction of the mutant subtilisin containing Glu at position 166 (E166) and presents substrate specificity data on these mutants. Further data on position 166 and 156 single and double mutants is presented infra.\n(§3) Each of these mutants was analyzed with the tetrapeptide substrates, succinyl-L-AlaL-AlaProL-X-p-nitroanilide, where X was Phe, Ala and Glu."}, "[2]": {"substrate": "C[C@H](NC(=O)CCC(=O)O)C(=O)N[C@@H](C)C(=O)N1CCC[C@H]1C(=O)N[C@@H](CCC(N)=O)C(=O)Nc1ccc([N+](=O)[O-])cc1", "assay": "Kinetics of p-nitroanilide substrate hydrolysis, D166", "details": "other: Table XIV, 156 Glu / 166 Asp; value in parentheses; synthetic substrate with label as P-1 amino acid", "excerpt": "as §1, §2, §3"}, "[3]": {"substrate": "C[C@H](NC(=O)CCC(=O)O)C(=O)N[C@@H](C)C(=O)N1CCC[C@H]1C(=O)N[C@@H](CCCCN)C(=O)Nc1ccc([N+](=O)[O-])cc1", "assay": "Kinetics of p-nitroanilide substrate hydrolysis, D166", "details": "other: Table XIV, 156 Glu / 166 Asp; value in parentheses; synthetic substrate with label as P-1 amino acid", "excerpt": "as §1, §2, §3"}, "[4]": {"substrate": "CSCC[C@H](NC(=O)[C@@H]1CCCN1C(=O)[C@H](C)NC(=O)[C@H](C)NC(=O)CCC(=O)O)C(=O)Nc1ccc([N+](=O)[O-])cc1", "assay": "Kinetics of p-nitroanilide substrate hydrolysis, E166", "details": "other: Table XIV, 156 Glu / 166 Glu; value in parentheses; synthetic substrate with label as P-1 amino acid", "excerpt": "as §1, §2\n(§4) pΔ166, described in Example 3, was digested with Sacl and Xmal. The double strand DNA cassette (underlined and overlined) of line 4 in Figure 13 contained the triplet GAA for the codon 166 to encode the replacement of Glu for Gly166. This mutant plasmid designated […] was propagated in BG2036 as described. This mutant subtilisin, together with the other mutants containing ionic substituent amino acids at residue 166, were isolated as described and further analyzed for variations in substrate specificity.\nas §3"}, "[5]": {"substrate": "C[C@H](NC(=O)CCC(=O)O)C(=O)N[C@@H](C)C(=O)N1CCC[C@H]1C(=O)N[C@@H](CCC(N)=O)C(=O)Nc1ccc([N+](=O)[O-])cc1", "assay": "Kinetics of p-nitroanilide substrate hydrolysis, E166", "details": "other: Table XIV, 156 Glu / 166 Glu; value in parentheses; synthetic substrate with label as P-1 amino acid", "excerpt": "as §1, §2, §4, §3"}, "[6]": {"substrate": "C[C@H](NC(=O)CCC(=O)O)C(=O)N[C@@H](C)C(=O)N1CCC[C@H]1C(=O)N[C@@H](CCCCN)C(=O)Nc1ccc([N+](=O)[O-])cc1", "assay": "Kinetics of p-nitroanilide substrate hydrolysis, E166", "details": "other: Table XIV, 156 Glu / 166 Glu; value in parentheses; synthetic substrate with label as P-1 amino acid", "excerpt": "as §1, §2, §4, §3"}, "[7]": {"substrate": "CSCC[C@H](NC(=O)[C@@H]1CCCN1C(=O)[C@H](C)NC(=O)[C@H](C)NC(=O)CCC(=O)O)C(=O)Nc1ccc([N+](=O)[O-])cc1", "assay": "Kinetics of p-nitroanilide substrate hydrolysis, N166", "details": "other: Table XIV, 156 Glu / 166 Asn; value in parentheses; synthetic substrate with label as P-1 amino acid", "excerpt": "as §1, §2, §3"}, "[8]": {"substrate": "C[C@H](NC(=O)CCC(=O)O)C(=O)N[C@@H](C)C(=O)N1CCC[C@H]1C(=O)N[C@@H](CCC(=O)O)C(=O)Nc1ccc([N+](=O)[O-])cc1", "assay": "Kinetics of p-nitroanilide substrate hydrolysis, N166", "details": "other: Table XIV, 156 Glu / 166 Asn; value in parentheses; synthetic substrate with label as P-1 amino acid", "excerpt": "as §1, §2, §3"}, "[9]": {"substrate": "C[C@H](NC(=O)CCC(=O)O)C(=O)N[C@@H](C)C(=O)N1CCC[C@H]1C(=O)N[C@@H](CCC(N)=O)C(=O)Nc1ccc([N+](=O)[O-])cc1", "assay": "Kinetics of p-nitroanilide substrate hydrolysis, N166", "details": "other: Table XIV, 156 Glu / 166 Asn; value in parentheses; synthetic substrate with label as P-1 amino acid", "excerpt": "as §1, §2, §3"}, "[10]": {"substrate": "C[C@H](NC(=O)CCC(=O)O)C(=O)N[C@@H](C)C(=O)N1CCC[C@H]1C(=O)N[C@@H](CCCCN)C(=O)Nc1ccc([N+](=O)[O-])cc1", "assay": "Kinetics of p-nitroanilide substrate hydrolysis, N166", "details": "other: Table XIV, 156 Glu / 166 Asn; value in parentheses; synthetic substrate with label as P-1 amino acid", "excerpt": "as §1, §2, §3"}}, "note": "Residue numbers refer to the chain shown, from its start. Names may count otherwise."}
{"protein": "B1", "values": [{"measurement": "Km", "setting": "[1]", "value": 1820, "unit": "µM"}, {"measurement": "Km", "setting": "[2]", "value": 2750, "unit": "µM"}, {"measurement": "Km", "setting": "[3]", "value": 1000, "unit": "µM"}]}
{"protein": "B2", "values": [{"measurement": "Km", "setting": "[4]", "value": 525, "unit": "µM"}, {"measurement": "Km", "setting": "[5]", "value": 1230, "unit": "µM"}, {"measurement": "Km", "setting": "[6]", "value": 204, "unit": "µM"}]}
{"protein": "B3", "values": [{"measurement": "Km", "setting": "[7]", "value": 141, "unit": "µM"}, {"measurement": "Km", "setting": "[8]", "value": 6030, "unit": "µM"}, {"measurement": "Km", "setting": "[9]", "value": 724, "unit": "µM"}, {"measurement": "Km", "setting": "[10]", "value": 1320, "unit": "µM"}]}
